Like-named read-outs stand apart in the source and are kept apart here.
Legend:
CaMKII^F394BzF (human) = CaMKII^F394BzF (human) (UniProt Q9UQM7)
[1] = biological target: CaMKII^K42RD135N-AviTag (kinase-dead CaMKII, K42R and D135N double mutant, C-terminal AviTag) (human) (UniProt Q9UQM7); assay: mass photometry
[2] = biological target: CaMKII^K42RD135N-AviTag (kinase-dead CaMKII, K42R and D135N double mutant, C-terminal AviTag) (human) (UniProt Q9UQM7); assay: mass photometry; remark: listed apart in the source
[3] = biological target: CaMKII^K42RD135N-AviTag (kinase-dead CaMKII, K42R and D135N double mutant, C-terminal AviTag) (human) (UniProt Q9UQM7)

stoichiometry N (CaMKII^F394BzF (human))	stoichiometry N [1]	percent in the tetramer peak [2] [%]	stoichiometry N [2]	stoichiometry N [3]	Substance
12	–	–	–	–	CaMKII^F394BzF (from UniProt Q9UQM7 6-478) (enzyme)
–	10	12	4	12	CaMKII^K42RD135N-AviTag (kinase-dead CaMKII, K42R and D135N double mutant, C-terminal AviTag) (from UniProt Q9UQM7 6-478) (enzyme)

Reference: article doi:10.1101/2022.08.03.502606
